# The supplement of paper PMC9112550, “Optimization of the antimicrobial peptide Bac7 by deep mutational scanning” (BMC Biology, 2022)
# Tested on: Escherichia coli TOP10
# Test: shrunken log2 fold change of peptide-encoding DNA abundance (4.5 h post-induction vs induction); higher = less antimicrobial activity (less host growth inhibition)
# Conditions: time post-induction: 4.5 h; library: site-saturation at positions 5, 18, 19, 20
# 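Further: peptides expressed intracellularly from a pBAD plasmid library in pooled LB shake-flask culture, induced with 0.3% L-arabinose, DNA abundance read by NGS, three biological replicates, DESeq2 with apeglm shrinkage.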
row,Sequence,shrunken log2 fold change
1,RRIRDRPPRLPRPRPRPPADPRP,0.594
2,RRIRDRPPRLPRPRPRPPAGPRP,0.418
3,RRIRDRPPRLPRPRPRPPARPRP,1.46
4,RRIRDRPPRLPRPRPRPPCGPRP,0.411
5,RRIRDRPPRLPRPRPRPPCIPRP,-0.264
6,RRIRDRPPRLPRPRPRPPFGPRP,0.225
7,RRIRDRPPRLPRPRPRPPGCPRP,-0.0092
8,RRIRDRPPRLPRPRPRPPGFPRP,0.348
9,RRIRDRPPRLPRPRPRPPGWPRP,1.66
10,RRIRDRPPRLPRPRPRPPHNPRP,-0.103
11,RRIRDRPPRLPRPRPRPPHSPRP,0.279
12,RRIRDRPPRLPRPRPRPPIDPRP,0.0165
13,RRIRDRPPRLPRPRPRPPIVPRP,-0.161
14,RRIRDRPPRLPRPRPRPPKVPRP,0.387
15,RRIRDRPPRLPRPRPRPPKYPRP,-0.47
16,RRIRDRPPRLPRPRPRPPLRPRP,0.271
17,RRIRDRPPRLPRPRPRPPMFPRP,0.216
18,RRIRDRPPRLPRPRPRPPMKPRP,0.131
19,RRIRDRPPRLPRPRPRPPMQPRP,0.172
20,RRIRDRPPRLPRPRPRPPNDPRP,0.14
21,RRIRDRPPRLPRPRPRPPPAPRP,0.924
22,RRIRDRPPRLPRPRPRPPSAPRP,0.506
23,RRIRDRPPRLPRPRPRPPSIPRP,-0.0216
24,RRIRDRPPRLPRPRPRPPTQPRP,0.285
25,RRIRDRPPRLPRPRPRPPTWPRP,0.291

row,Sequence,shrunken log2 fold change
1,RRIRDRPPRLPRPRPRPPWNPRP,-0.0258
2,RRIRDRPPRLPRPRPRPPYAPRP,0.0432
3,RRIRDRPPRLPRPRPRPPYIPRP,-0.346
4,RRIRDRPPRLPRPRPRPQASPRP,-0.0448
5,RRIRDRPPRLPRPRPRPQCSPRP,0.0391
6,RRIRDRPPRLPRPRPRPQCWPRP,0.0162
7,RRIRDRPPRLPRPRPRPQDVPRP,-0.254
8,RRIRDRPPRLPRPRPRPQDYPRP,-0.112
9,RRIRDRPPRLPRPRPRPQELPRP,-0.238
10,RRIRDRPPRLPRPRPRPQEPPRP,-0.0802
11,RRIRDRPPRLPRPRPRPQFAPRP,-0.0178
12,RRIRDRPPRLPRPRPRPQFVPRP,-0.0477
13,RRIRDRPPRLPRPRPRPQFYPRP,-0.129
14,RRIRDRPPRLPRPRPRPQHCPRP,0.0461
15,RRIRDRPPRLPRPRPRPQHQPRP,-0.108
16,RRIRDRPPRLPRPRPRPQIDPRP,-0.0493
17,RRIRDRPPRLPRPRPRPQIRPRP,-0.222
18,RRIRDRPPRLPRPRPRPQKTPRP,-0.253
19,RRIRDRPPRLPRPRPRPQLVPRP,0.0777
20,RRIRDRPPRLPRPRPRPQLYPRP,-0.162
21,RRIRDRPPRLPRPRPRPQMEPRP,0.00785
22,RRIRDRPPRLPRPRPRPQMVPRP,-0.0637
23,RRIRDRPPRLPRPRPRPQNCPRP,0.00875
24,RRIRDRPPRLPRPRPRPQNMPRP,-0.574
25,RRIRDRPPRLPRPRPRPQNTPRP,-0.605

row,Sequence,shrunken log2 fold change
1,RRIRDRPPRLPRPRPRPQPFPRP,-0.0264
2,RRIRDRPPRLPRPRPRPQSMPRP,0.0598
3,RRIRDRPPRLPRPRPRPQTHPRP,0.269
4,RRIRDRPPRLPRPRPRPQTWPRP,-0.109
5,RRIRDRPPRLPRPRPRPQWEPRP,0.033
6,RRIRDRPPRLPRPRPRPQYEPRP,-0.025
7,RRIRDRPPRLPRPRPRPRADPRP,0.65
8,RRIRDRPPRLPRPRPRPRAHPRP,0.38
9,RRIRDRPPRLPRPRPRPRAKPRP,0.208
10,RRIRDRPPRLPRPRPRPRCNPRP,-0.0439
11,RRIRDRPPRLPRPRPRPRCPPRP,0.131
12,RRIRDRPPRLPRPRPRPRDKPRP,-0.0712
13,RRIRDRPPRLPRPRPRPREAPRP,-0.0547
14,RRIRDRPPRLPRPRPRPREGPRP,1.01
15,RRIRDRPPRLPRPRPRPRFDPRP,-0.0584
16,RRIRDRPPRLPRPRPRPRGSPRP,0.255
17,RRIRDRPPRLPRPRPRPRHEPRP,-0.000978
18,RRIRDRPPRLPRPRPRPRHTPRP,0.122
19,RRIRDRPPRLPRPRPRPRICPRP,0.00396
20,RRIRDRPPRLPRPRPRPRKAPRP,-0.0143
21,RRIRDRPPRLPRPRPRPRKYPRP,-0.283
22,RRIRDRPPRLPRPRPRPRLDPRP,0.173
23,RRIRDRPPRLPRPRPRPRLFPRP,0.653
24,RRIRDRPPRLPRPRPRPRLQPRP,0.0983
25,RRIRDRPPRLPRPRPRPRMLPRP,0.229
